Results on 20 sequences are retold here after a protein production outcome set (Wang et al. 2014).

The series is described as follows: label from the status in PepcDB records.
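Further: failed if final PepcDB status was selected cloned or expressed and not failed if soluble or beyond.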

On to “MRTLIILLLCTNTSFAIAQISPKAVEKNNQSVKTAGFFNDSDSLNKAIHLSDEAIALEPSYKLAYANKIKYLMALGQKEKALQTMLQMEKFSPDDPYYILGKGMMLEENAKKSLAMDAYKQAASLFKKRLKEKPTEADLMNYVFVLFLRDNKNYSLDEIEKEYPQIFSPAIRQHTKKLIDELSNKREDVIHEMLGGK”, for which the protein production entry is on record as “failed”.
Turning to “MRTPLIDRRDFLRAAGIGFAAVMAPSAWAKTLAANAVFATAFVKRDGSFGAAILSEAGKVLHAIDLPDRGHDVTFDPISKRSVVFARQPGTFAVVFDHSGRDAPQTVASISGRHFFGHGVFSPDGALLYATENDFDNAAGVIGIYDARAKFSRVGEFPTYGMGPHELLLLGDGRTMAVANGGIETHPDYGRAELNIATMKPSYVLIDRVTGDLIEKHELPASLHQLSIRHMDTDPSGTVWFGCQYRGPGTDRPLLVGRAVRGKELQLLDMPQDVLSGFRNYIGSVAANLSAGSVAVSSPEGNSLVVIDAASGRVVSSSALVEVCGLAPDGSGFIATTGAGEIIEGSGATRSEPDYVWDNHMLRIERA”, the protein production result was “failed”.
The same measure for “MRTSNPMLKKEAFRKEGASASAMTIGGTVGKTFIMLILLLATSVYSYIQMMQGTMKMPVLIGALIVAAIIAFASMFFPRISPFGAPIYAAVEGVVLGSISAVYTMKFGDSIVLNAVLLTISILFAMLVLYATRVVKVTDKFRTGVMAATLGIMVMYLVVFLLNMFGVTVPYIHQGGTIGIIISAVVIVVAALNLLLDFDLIENGVRSQAPKYMEWYTAMGLMLTLVWLYLEILRFVSYFTKND”: “not failed”; for “MRTTHSPATAAGRTLGRVLKAVLSLLVLAAAVAGLPLLLAWVTPAIWASSHDDLTHLLDRQDTGAAFLLLLVAVGWIGWAQFAFCAVRELIAQVGGRSWQAPRRLGASQRAAALLVGSILVLLPTSSALASDAHASPATTEARVPGQAPAPQTAEPDQTLPDSASTPASRTSYTVRATRPAQSLWGIAERELGDGERWREIAALNEGRTMVDGQVFRAHGFLQPGWQLEMPDTAAAAGGIRTQLGRAAPTAEGKNEHVVTVHSGDYLSKIAEEELGDGGEWPRLFKASRGKTQPDGLPAISDPDVIYAGQQVTVPGAQPDPHTPPRDGDNGDEAGSQETTPPATQKPDGKQKPGDDRRDEQAPAPGTTTAPAPESSAPSTPASRPAEQPGQEQGSPSATASATPRPGTSPAPSAAAPSATAEAPGSADSSPATTASETPPPAPAPAPASSPLNLRTVLGAGTLLAAAITGALALRRTLQRRRRTPGEKIAIASETSPAEAKLAAAAEPGGAARLDVALRTLAHQVAHEKAADLPPIRAARIGTRTVEVLPEGLARKPQAPFVAGQAGWWVLPAEAVLLDEETAREVPAPYPGLVTIGSTESGDLLLLNLPQVAALLLDGNPVHITEVCTSLALELGMSPWASEAEIVTIGFGEDLPQLLPTSRIAHMRHARHALRDLSERLLEAHQMPETSHQPYLLLCASTLDADLAWQFADIIDKAQHVPVTLIAPASAAAASFPDAEILNASLSKPQQFDYIGSEITVQRLEHAAYLQITTALAISAQPADPAEGPWEEVPHEPDTPQRPRPLDLAKPTQSGDGEKPVPASPFTAGTGDSEIYPALLAASTDPASLKLLPDPKAPGKAPAEPGTEPAEMTPDGRAPQKAAEATGRPQETPAAEAVGEDTQAQDLHAPEIRVLGPVEVTGVATTGHGPSQARLAALLYFRPGRSADVLCADMDPVSPWSTATLNARLQGLRRALGNDPAGNAYVPRRRSGDDPYELSEAVRCDWARFTQLAQRALPQGTAGLPDLEKALGLIRGRPFGTRPLPWAEPYQQEMSTRIIDVAHTVATYRTPTGPHHDLTAARQAIATGLDVDDSAELLYRDWMRIEHAAGNRAGLHTAITRIQDINRKIDCSLENETEQLINDLLGPTGGRARGR”: “failed”.
As for “MRVAIPAEDDRGIKSNVSKHFGRSRYFVFVDIEGEDVKNVEVVEVPFEEHGPGDLPNFIKDHGAKIVLTYGIGRRAIEYFNSLGISVVTGVYGRISDVIKAFIGGKLKIDYDWKEKIEKEH”, the entry is “not failed”; as for “MRVEIWSDIACPWCYVGKARFEKALAAFPHRDGVEVVHRSFELDPGRAKDDVQPVLTMLTAKYGMSQEQAQAGEDNLGAQAAAEGLAYRTRDRDHGSTFDLHRLLHLAKERGRHEALLDAFYRGNFADERSVFNDDERLVELAVGAGLDAEEVRAVLADPAAYADEVRADEREAAQLGATGVPFFVLDRAYGVSGAQPAEVFTQALTQAWGERTPLKLIDDGGAEACGPDGCAVPGH”, “not failed”; as for “MRVHASSPDNKLQVFAIAGTKAILLAMNMDDSLLQGFHGFAFRRRVANGQWEWLTGLKVFVDVFPEGGPVIKKGKVGRFPTNEHPIQSFLWSDYRASPGTKYEFEISAMFGPIAKLEAYYAATLAITTEQEDDGKHGIWFNLGAIASQAFAEKFGNKPLSDADYNDPDNEEVAFLSRGLLEACIEFIRETPAGDALRIVAYEFTFKRILLELKAALERGVDVRIVYHATTANEKAIADAKLPENSKGVQILFKRTRPQTPHNKFIVRLKKGKTPVSVWTGSTNFTPSGFLGQTNVGHKVTDGDIAKIYLQLWEGLKADPDDFDATQAAMALTPNPANVVGTGTTLVFSPRPSPKMLDWYGHRAADAVNAVMFTAAFKVDERILSALADTDTSMRFILLEQPPSAEVQAARRANPADLELSYGAILGKTKMLTEERTGRDATGKKVTKIVPIPNFKIEKWFLKEELERQSGDGFVFYVHTKFLLVDPFSDDPLVCTGSANFSGASLTSNDENMLLIRGDTRVADIYLTEYDRVFRHFYSRDVINDIAKKGGPVNVGKLDPTDKWWQPYYDAKLAKSHKRRMFFEDPKKHWIESATQDGNVFAKEKPLKKPQ”, “failed”.
The same measure for “MRVKICGITRLEDALLAEALGAFALGFVLAPGSRRRIAPEAARAIGEALGPFVVRVGVFRDQPPEEVLRLMEEARLQVAQLHGEEPPEWAEAVGRFYPVIKAFPLEGPARPEWADYPAQALLLDGKRPGSGEAYPRAWAKPLLATGRRVILAGGIAPENLEEVLALRPYALDLASGVEEAPGVKSAEKLRALFARLASLRMEG”: “not failed”.
For the sequence “MRVTWEEAGWESVAPFVGRRRLPGWDCTVGLVIGDSAALMIDAGSSLREGALLRAEAQRLLGPGRRVTHLALTHPHFDHVFGAAAFSGVEVFGAVGLDTALAHGREELRADAVRNGLDPRAAEGAADLLVRPRHHVFGEWTLDLGGEVQVLLANVGPGHTAYDLAVLVSSSPEVVFCGDLVEESGEPQAGPDAIPSHWPAALDRLLDLGGQDAVYVPGHGATVDAAFVRTQRDELAARFGIA”, the protein production result was “failed”.
As for “MRVVALVPGGIGDQILFFPTLDDLKRYYPNAQLDVVVEPRSKAAYRVSKSVNDILTFDYKDRNSLADWGNLVGTIRDREYDVVITVGQSWLVGLFLWLTGIPTRIGYQGKGRSFLTKTVPFKPSQYAAAVYHDLLAPIGITTPTPELEHHHHHH”, the entry is “failed”; as for “MRVVVTGATGFVGQQVVKALSDRGDQVVALVRSPGKAAKQFAGVPRVEWLGYTPKAAGDWFSALEGADAVIHLAGEPLANGRWTPQRKQEIYDSRVVGTQQLVQAIAQCQQRPRVLVSTSAIGYYGTSDTETFVETHAAGNDFLAKVCGDWEAAAQGVTELGVRLVILRFGIVLGEQGALAKLLLPFQLYLGGPLGSGQQWFSWIHQQDLVRLILTAVDQVGMQGVYNATAPEPLRMADFCRILAEVMQRPSWLPVPAPVLQLLLGEGADVVLKGQRVLPERTLATGFEFHYPNAKTALTNLLKPRYTEGSRLEHHHHHH”, “not failed”.
The same measure for “MRYCRRIGDGHITANSRRMFMVEPAGRKPDPQRRTPHPSVAPADAPWPAHSPVDPAVRRFRGAARYAIWRRGAEWTAVADGPQWSAALAPRIWALRQRQWPVLAVSAPMLVVAGAVALAGVQGWSPVAWTALLVAEVLLRVWVARQAGPWRTAALQRTGWQLVTRLRAISVADAVTTAQIRAGRPQR”: “failed”.
As to “MRYRNTALFVLLAAVWGSAFVAIKAGVGSPDAPGYFFDAPVLFAAVRYDIAAVLMFAYVAWATDRWRPRGRTEWLAVAVGSAFIIAGYHALLFLGQRGTTSAAAAVIVSLSPVLTTAFARALLADERLSVLGLAGMGVGFLGVVVLSQPTPADIAASRFEALVFAAALCFALGSVLTRRLDTDLPIETMEAWSMAGGALLMHALSLALGETVSGAPPTDALVALGYLAVVASAAGFLVYFDLLGRLGAIEINLVSYVVPVFAALVGVLLLGERVDTPTAAGFLLVFAGFVIIKRRAIRAEIADSYWP”, the protein production entry was “failed”.
The same measure for “MRYWKNSRIKMFEQEDEWISKTQMKKQMNDLQDLGMALTKLSNDTLKKIGLDADLYEAVTAYKKITSNGALKRQAQFIGRLMRDTDPAPIEAFLAKLRGDDAAHNAFLQRVEQARVRLLADDGALTQFMSDFPHADAGKLRTLIRNTKKEQEQNKPPKNFRALFQELKTVMENGDAEI”: “failed”; for “MSAAPGLLHQELSCPLCLQLFDAPVTAECGHSFCRACLGRVAGEPAADGTVLCPCCQAPTRPQALSTNLQLARLVEGLAQVPQGHCEEHLDPLSIYCEQDRALVCGVCASLGSHRGHRLLPAAEAHARLKTQLPQQKLQLQEACMRKEKSVAVLEHQLVEVEETVRQFRGAVGEQLGKMRVFLAALEGSLDCEAERVRGEAGVALRRELGSLNSYLEQLRQMEKVLEEVADKPQTEFLMKYCLVTSRLQKILAESPPPARLDIQLPIISDDFKFQVWRKMFRALMPALEELTFDPSSAHPSLVVSSSGRRVECSEQKAPPAGEDPRQFDKAVAVVAHQQLSEGEHYWEVDVGDKPRWALGVIAAEAPRRGRLHAVPSQGLWLLGLREGKILEAHVEAKEPRALRSPERRPTRIGLYLSFGDGVLSFYDASDADALVPLFAFHERLPRPVYPFFDVCWHDKGKNAQPLLLVGPEGAEA”: “failed”; for “MSAARQGVAQARRIVVKVGSSSLTTAAGGLDADRVDALVDVLAKSRSGGEKEIVLVSSGAIAAGLAPLGLRRRPKDLARQQAAASVGQGLLVARYTASCARHGIRVGQVLLTSDDTSRRAHHRNASRTLDKLLAMGALPVVNENDTVATDEIRFGDNDRLAALVAHLVRADLLVLLSDVDGVYDGDPSKPGTSRVAQVHGPQDLAHVEIGSAGRAGVGTGGMVTKIEAARIAAAAGIPVVLTSAVHAADALAGRDTGTYFHPTGKRSADRLLWLQHASTPQGALTLDDGAVRAVVERRKSLLPAGIAAVEGEFTAGDPVELRDSEGRAVARGLVSFDAKEIPQLLGRSTRELARELGPAYEREVVHRDDLVLLQP”: “failed”.
On to “MSADGSEYGRYFEQLQKVNLTVRLGDTGSFDGTAAITSLKGSLAWLELFGAEQPPPNTLSEGAEVSVSVWTGGALCRCDGRVETLRDDRQFAIRLVGRVRELQRREYF”, for which the protein production result is reported as “not failed”.
As for “MSADYPRDLIGYGNNPPHPHWPGDARIALSFVLNYEEGGERCVLHGDKESEAFLSEMVAAQPLQGVRHMSMESLYEYGSRAGVWRLLKLFKRRNVPLTVFAVAMAAQRNPEVIRAMVADGHEICSHGYRWIDYQYMDEAQEREHMLEAIRILTELTGQRPVGWYTGRTGPNTRRLVMEEGGFLYDSDTYDDDLPYWDPASTAEKPHLVIPYTLDTNDMRFTQVQGFNNGEQFFQYLKDAFDVLYEEGATAPKMLSIGLHCRLIGRPARMAALERFIQYAQSHDKVWFARREDIARHWHREHPFQETEA”, the entry is “not failed”; as for “MSAESASQIPKGQVDLLDFIDWSGVECLNQSSSHSLPNALKQGYREDEGLNLESDADEQLLIYIPFNQVIKLHSFAIKGPEEEGPKTVKFFSNKEHMCFSNVNDFPPSDTAELTEENLKGKPVVLKYVKFQNVRSLTIFIEANQSGSEVTKVQKIALYGST”, “not failed”.
In the case of “MSAGKIDVHGFEKETLFFKNIASGSKGNCTLIWDSTDLIVIDLGITMKKFRDSIKSLDLAGRSISLFISHEHSDHIGGVPTTSKYVDMDVYMRPALSGSFRRKTYEMDGSLVVGNFEIRAFEIPHDAADPVGFSVLWHNRKISVVSDLGKVTDRVIESIRNSDILAFESNHDVEMLRTGSYPEALKRRILSDHGHLSNEQSAEAISRVATDDMRIILTHLSQENNRPEIALNEVKSYLENRNVRYRSIETADQYTGSSLYTLER”, the protein production result is on record as “failed”.
